This assay deals with GFP:2B (Grapevine fanleaf virus movement protein 2B fused to EGFP) (Grapevine fanleaf virus). Description: FRET or BRET; FRET-FLIM in living N. benthamiana leaf epidermal cells after transient co-expression by agro-infiltration; GFP fusion of the movement protein as donor, RFP fusion as acceptor; fluorescence lifetime of the donor measured at tubules or plasmodesmata.

As to “GFP:2B (Grapevine fanleaf virus movement protein 2B fused to EGFP) (natural protein)”, the mean FRET (percent) worked out at 24%.
